According to IntAct's records for PubMed 18583988:

B1: Nibrin (Homo sapiens), O60934 (parent)
chain: MWKLLPAAGPAGGEPYRLLTGVEYVVGRKNCAILIENDQSISRNHAVLTANFSVTNLSQTDEIPVLTLKDNSKYGTFVNEEKMQNGFSRTLKSGDGITFGVFGSKFRIEYEPLVACSSCLDVSGKTALNQAILQLGGFTVNNWTEECTHLVMVSVKVTIKTICALICGRPIVKPEYFTEFLKAVESKKQPPQIESFYPPLDEPSIGSKNVDLSGRQERKQIFKGKTFIFLNAKQHKKLSSAVVFGGGEARLITEENEEEHNFFLAPGTCVVDTGITNSQTLIPDCQKKWIQSIMDMLQRQGLRPIPEAEIGLAVIFMTTKNYCDPQGHPSTGLKTTTPGPSLSQGVSVDEKLMPSAPVNTTTYVADTESEQADTWDLSERPKEIKVSKMEQKFRMLSQDAPTVKESCKTSSNNNSMVSNTLAKMRIPNYQLSPTKLPSINKSKDRASQQQQTNSIRNYFQPSTKKRERDEENQEMSSCKSARIETSCSLLEQTQPATPSLWKNKEQHLSENEPVDTNSDNNLFTDTDLKSIVKNSASKSHAAEKLRSNKKREMDDVAIEDEVLEQLFKDTKPELEIDVKVQKQEEDVNVRKRPRMDIETNDTFSDEAVPESSKISQENEIGKKRELKEDSLWSAKEISNNDKLQDDSEMLPKKLLLTEFRSLVIKNSTSRNPSGINDDYGQLKNFKKFKKVTYPGAGKLPHIIGGSDLIAHHARKNTELEEWLRQEMEVQNQHAKEESLADDLFRYNPYLKRRR

Variants of: B1
Details: with mdc1_human MDC1, Q14676
Sequence of mdc1_human MDC1, Q14676 (Q14676 whole entry): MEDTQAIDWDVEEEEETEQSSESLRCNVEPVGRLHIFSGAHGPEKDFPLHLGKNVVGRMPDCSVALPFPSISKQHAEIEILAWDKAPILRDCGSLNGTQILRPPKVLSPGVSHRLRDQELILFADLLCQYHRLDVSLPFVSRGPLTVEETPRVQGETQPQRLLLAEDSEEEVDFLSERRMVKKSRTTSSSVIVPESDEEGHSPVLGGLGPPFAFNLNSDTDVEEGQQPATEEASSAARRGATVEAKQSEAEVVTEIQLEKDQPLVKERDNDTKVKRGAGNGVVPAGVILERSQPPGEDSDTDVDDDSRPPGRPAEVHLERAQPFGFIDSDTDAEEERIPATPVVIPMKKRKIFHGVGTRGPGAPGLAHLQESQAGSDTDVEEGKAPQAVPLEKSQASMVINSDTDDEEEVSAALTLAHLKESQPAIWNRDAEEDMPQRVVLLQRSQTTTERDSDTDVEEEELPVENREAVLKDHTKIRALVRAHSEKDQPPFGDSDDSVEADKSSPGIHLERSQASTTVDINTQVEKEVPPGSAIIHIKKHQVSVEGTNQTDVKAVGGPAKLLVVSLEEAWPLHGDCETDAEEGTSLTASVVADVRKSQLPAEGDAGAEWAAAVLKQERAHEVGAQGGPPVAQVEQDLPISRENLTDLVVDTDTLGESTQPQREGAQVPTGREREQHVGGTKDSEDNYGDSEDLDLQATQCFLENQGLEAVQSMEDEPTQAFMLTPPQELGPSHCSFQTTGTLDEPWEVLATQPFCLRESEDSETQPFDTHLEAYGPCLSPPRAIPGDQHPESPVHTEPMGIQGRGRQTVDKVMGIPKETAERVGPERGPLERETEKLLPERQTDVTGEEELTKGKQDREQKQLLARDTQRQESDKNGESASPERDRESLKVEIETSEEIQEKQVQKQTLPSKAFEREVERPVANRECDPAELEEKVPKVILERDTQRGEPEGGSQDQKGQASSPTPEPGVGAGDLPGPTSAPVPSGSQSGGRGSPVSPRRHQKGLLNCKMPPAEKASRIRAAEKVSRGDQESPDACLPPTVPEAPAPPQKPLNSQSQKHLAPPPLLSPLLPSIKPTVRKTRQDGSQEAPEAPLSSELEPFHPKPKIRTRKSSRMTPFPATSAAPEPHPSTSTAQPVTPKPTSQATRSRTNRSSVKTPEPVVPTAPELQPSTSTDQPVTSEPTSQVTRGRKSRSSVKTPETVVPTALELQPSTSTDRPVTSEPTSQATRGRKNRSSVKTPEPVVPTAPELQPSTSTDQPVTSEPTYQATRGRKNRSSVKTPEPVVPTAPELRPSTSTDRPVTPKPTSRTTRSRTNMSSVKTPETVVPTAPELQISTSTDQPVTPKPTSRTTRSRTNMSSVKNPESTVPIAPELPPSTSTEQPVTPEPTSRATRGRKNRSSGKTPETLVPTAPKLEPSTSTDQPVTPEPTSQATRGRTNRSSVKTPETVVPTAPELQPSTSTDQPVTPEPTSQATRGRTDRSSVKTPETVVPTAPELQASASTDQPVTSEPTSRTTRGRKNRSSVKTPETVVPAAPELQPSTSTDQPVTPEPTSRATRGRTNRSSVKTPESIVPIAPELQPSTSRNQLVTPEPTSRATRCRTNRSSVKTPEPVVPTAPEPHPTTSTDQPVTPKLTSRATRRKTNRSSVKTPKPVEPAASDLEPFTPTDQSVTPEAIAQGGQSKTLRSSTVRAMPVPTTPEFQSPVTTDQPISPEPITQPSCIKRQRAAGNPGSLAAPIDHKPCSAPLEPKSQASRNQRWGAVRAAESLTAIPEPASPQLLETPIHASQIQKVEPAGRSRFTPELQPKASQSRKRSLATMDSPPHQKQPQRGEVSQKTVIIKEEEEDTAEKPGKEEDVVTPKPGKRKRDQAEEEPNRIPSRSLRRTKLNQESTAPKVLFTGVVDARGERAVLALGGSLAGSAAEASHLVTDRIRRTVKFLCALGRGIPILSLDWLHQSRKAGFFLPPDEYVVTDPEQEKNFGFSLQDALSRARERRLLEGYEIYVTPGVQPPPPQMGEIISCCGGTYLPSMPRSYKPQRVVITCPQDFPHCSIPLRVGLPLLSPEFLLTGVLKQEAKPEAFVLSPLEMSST

| Variant | effect of a mutation on the interaction |
| --- | --- |
| R28A | disrupting interaction |

Variants of: B1
Details: with mdc1_human MDC1, Q14676
Remark: another data set of the same source

| Variant | effect of a mutation on the interaction |
| --- | --- |
| H45A | disrupting interaction |

Variants of: B1
Details: with mdc1_human MDC1, Q14676
Remark: another data set of the same source

| Variant | effect of a mutation on the interaction |
| --- | --- |
| K160M | disrupting interaction |
